Test results taken from publication PMC5676682, “Precision Targeting of Tumor Macrophages with a CD206 Binding Peptide” (Scientific Reports, 2017).
Where no end group is shown, it is not given here. FAM = 5(6)-carboxyfluorescein; Ahx = NCCCCCC(=O)O

Target: T1, recombinant mouse macrophage mannose receptor rmMMR/CD206 (mouse, UniProt Q61830 20-1388)
T1 construct: macrophage mannose receptor (CD206/MRC1), mouse, recombinant; take the limits from the vendor's data sheet; also called MRC1; mouse recombinant CD206; source: bought: R&D Systems (catalog number 2535-MM-050)
T1 sequence (looked up): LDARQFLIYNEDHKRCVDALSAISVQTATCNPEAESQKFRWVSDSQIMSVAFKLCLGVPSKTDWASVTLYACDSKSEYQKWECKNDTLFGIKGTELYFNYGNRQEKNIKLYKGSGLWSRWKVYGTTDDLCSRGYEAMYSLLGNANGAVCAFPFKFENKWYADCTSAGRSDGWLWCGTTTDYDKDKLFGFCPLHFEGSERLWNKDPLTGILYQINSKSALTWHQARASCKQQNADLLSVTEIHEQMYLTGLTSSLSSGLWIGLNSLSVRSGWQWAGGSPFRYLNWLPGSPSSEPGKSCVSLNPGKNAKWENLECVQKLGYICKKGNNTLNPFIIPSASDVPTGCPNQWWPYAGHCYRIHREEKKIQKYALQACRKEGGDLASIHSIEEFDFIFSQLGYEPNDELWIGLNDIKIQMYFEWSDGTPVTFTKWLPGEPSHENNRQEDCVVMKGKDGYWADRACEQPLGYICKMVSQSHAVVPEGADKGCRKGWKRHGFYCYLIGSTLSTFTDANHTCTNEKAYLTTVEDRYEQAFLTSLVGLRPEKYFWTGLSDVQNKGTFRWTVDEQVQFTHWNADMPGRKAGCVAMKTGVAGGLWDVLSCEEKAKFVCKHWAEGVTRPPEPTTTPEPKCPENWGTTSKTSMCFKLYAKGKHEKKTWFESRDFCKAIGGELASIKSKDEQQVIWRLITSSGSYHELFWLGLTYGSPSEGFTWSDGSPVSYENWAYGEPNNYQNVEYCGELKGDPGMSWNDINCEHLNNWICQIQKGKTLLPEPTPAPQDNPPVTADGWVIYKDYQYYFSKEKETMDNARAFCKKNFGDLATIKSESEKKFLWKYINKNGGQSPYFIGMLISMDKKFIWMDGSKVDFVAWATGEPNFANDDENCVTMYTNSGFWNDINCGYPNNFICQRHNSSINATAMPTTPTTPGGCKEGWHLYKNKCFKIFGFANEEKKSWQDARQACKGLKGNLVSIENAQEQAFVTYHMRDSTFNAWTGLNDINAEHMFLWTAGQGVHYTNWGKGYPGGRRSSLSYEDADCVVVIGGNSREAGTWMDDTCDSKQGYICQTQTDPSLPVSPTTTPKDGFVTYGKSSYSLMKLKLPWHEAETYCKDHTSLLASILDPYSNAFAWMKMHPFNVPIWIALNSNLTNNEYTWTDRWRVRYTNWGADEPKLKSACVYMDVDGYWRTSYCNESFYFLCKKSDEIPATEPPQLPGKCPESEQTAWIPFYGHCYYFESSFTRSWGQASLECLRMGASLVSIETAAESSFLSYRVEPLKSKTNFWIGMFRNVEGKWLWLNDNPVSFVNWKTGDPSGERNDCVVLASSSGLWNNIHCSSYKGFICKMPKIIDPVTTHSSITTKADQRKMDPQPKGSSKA
Experiment: fluorescence polarisation; fluorescence anisotropy in solution, kinetic mode, 50 nM FAM peptide and 1 µM protein (pseudo first-order), 25 °C, 10 mM Na-HEPES, 150 mM NaCl, 1 mM CaCl2, 0.1% Pluronic F-127, pH 7.4
Conditions: both partners purified

binding result: binds
B1: FAM-CSPGAK (peptide)
peptide: {FAM-Ahx}-CSPGAK
notes: also called linear CSPGAK motif; source: synthetic peptide; bought: TAG Copenhagen
